Assay results taken from the RNAGym collection of RNA variant scans (doi:10.1073/pnas.2313332121).

B1: TPR t1 (parent)
chain: GACCAAUCUGCCCUCAGAGCUCGAGAACAUCUUCGGAUGCAGAGGAGGCAGGCUUCGGUGGCGCGAUAGCGCCAACGUCCUCAACCUCCAAUGCAUCCCACCACAUGAUGAUGCCUGAAGAGCCUUGGUUUUUUG

Variants of: B1
Experiment: polymerase ribozyme fitness, log enrichment relative to wild type (log ratio); higher = more active; in vitro selection for triplet polymerase activity
In short: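 Mutant libraries of both subunits of a heterodimeric triplet polymerase ribozyme were PCR-built, transcribed, and selected once in triplicate, with frozen incubation at −7 °C and capture of gel-excised extended constructs on streptavidin beads before RT-PCR. Illumina sequencing of input and output libraries was filtered to genotypes with ≥10 input reads and ≥1 read per output. Fitness is the logarithm of genotype enrichment over wild-type enrichment, using inverse-variance-weighted replicate averages. The logarithm is base 2.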

| Variant | polymerase ribozyme fitness (log ratio) |
| --- | --- |
| U7A A16G U55G G61C C82U | -1.41 |
| G61C G117C | -3.51 |
| U32C C34U G39C | -5.23 |
| C72U A119G | 0.547 |
| C11U A29G G77U A84U C89A | -6.04 |
| C12A U87A | -0.82 |
| A18C C20G G47U G48U | -4.66 |
| A46G C73A A108G | -2.82 |
| A2U C8G C15U C64U | -2.18 |
| A91U U106G | -4.85 |
| C70U A84G | -1.86 |
| G63C A105G G120C | -2.96 |
| C49A C85U G113A A119C | -4.02 |
| C13A A37G | -2.27 |
| C34U G63U G69A A84G | -6.86 |
| C3A U7G U32C G93C A111C | -1.66 |
| A2C C53G C70G | -5.19 |
| C114U A118U | -3.68 |
| A2C C4A U7C G44A C56G C94U | -1.93 |
| G42C C53G | -1.2 |
| G48U A84G | 0.021 |

| Variant | polymerase ribozyme fitness (log ratio) |
| --- | --- |
| G47A C82U C86G | -0.151 |
| G10U A18G A37U C40U U112A U126C | -1.57 |
| G10A A29U A41C C73U A74U G113U | -3.95 |
| C11U G19U C20A C104U G120U | -4.29 |
| A18C C40G C70A A83G C94U C115U U129G | -5.58 |
| U7A G10C C56U C62U C80A A84U G110A C124A U133A | -7.38 |
| A6U C72A C85U A90G G107U U112A | -4.8 |
| C85A C114G | -4.62 |
| U116G A119G | 1.79 |
| A6U G71U G110A G127U U133G | -2.25 |
| C3A G61U | -1.07 |
| U59C C80A U81A | -2.03 |
| A43G U112A | -0.27 |
| C101G U133A | -1.55 |
| G48C C101U A105G G120U | -3.67 |
| A74U G93U G120A U125G U129G | -2.55 |
| C11G C86U | -0.354 |
| C34U U96C | -5.22 |
| C72G C73A A121G | 0.168 |
| A6U U38G U59C C86A | -3.66 |
| C53U C101A | -0.961 |

| Variant | polymerase ribozyme fitness (log ratio) |
| --- | --- |
| G44U G57A C94G | -3.86 |
| G44A A95C | -1.35 |
| C13A A50G C62A | -3.49 |
| U21A A103U | -6.15 |
| C62G G128A | -2.8 |
| C13U G51U | -2.84 |
| C31G C34U U109G G110C | -6.14 |
| G48C C56G C62U U78C | -1.82 |
| U9C G47C G71U U132C | -2.26 |
| G10U G69U U112G C123G | 1.15 |
| G47U C97A | -5.54 |
| C12G G71U G77A | -0.248 |
| A46C U126G | -2.07 |
| A27G C88U C115U | -4.85 |
| C53G C94A U132A | -1.31 |
| C79U C114U | -2.32 |
| C8A C49A C86U G93U C94U C123A | -0.367 |
| G42U G47U | -1.51 |
| C31G G71U C94G A121G U132C | -7.12 |
| U7G A50U G117C | -3.6 |
| C12U G45U C70G U132C | -6.34 |

| Variant | polymerase ribozyme fitness (log ratio) |
| --- | --- |
| C34U C70U U112A G135U | -6.08 |
| C56G C98A | -3.95 |
| U7G A68U | -6.53 |
| G44U G57U C89U C104U | -1.47 |
| A50U C88U | -1.71 |
| C12U C15A A37C G52U C72U U116G | -3.77 |
| C3U G17A | -3.24 |
| C98U G117U G120C U132C | -3.23 |
| G10A C11G G71A | -0.829 |
| A6G C99A C123U | -5.05 |
| G60U C86A | -0.471 |
| C15U C28U C89A C123A | -5.8 |
| A18U U54A C72G | -2.46 |
| U7C C13U A105U | -1.79 |
| C12A C86U | -0.885 |
| C12U C20A G120A U132C | -1.48 |
| C13A G45C A84C A91C | -4.71 |
| A2G G36A C49G A84C C123A U126G | -2.7 |
| A29G C62U A118U G120C | -1.4 |
| G63C U116G | -2.02 |
